Measured values from article PMC10424212.

Settings: ubiquitination at K57

Substance | enzymatic_activity | degradation_or_half_life
ALKBH5: K57R (purified FLAG-tagged protein, in vitro demethylation assay) | no change | –
ALKBH5: K57R | – | increases
